The target of experiment [1] is Mycx2-hLepR(ecto)-GPI anchored, on HEK293/hLEPR-GPI cells (human) (UniProt P48357). In words: FACS, 10 nM Ab, HEK293/hLEPR-GPI, 1 uM Leptin. On the technique in general: A flow cytometer gives signals particle by particle.
Experiment [2] concerns the target human LEPR extracellular domain expressed with a C-terminal myc-myc-hexahistidine tag (hLEPR.mmh) (human) (UniProt P48357). In words: Luminex, myc-captured LEPR protein.
Experiment [3] addresses human LEPR CRH1 (D1,D2,D3)-MMH (human) (UniProt P48357). Briefly: Luminex, myc-captured LEPR protein.
For experiment [4], the target named is human LEPR Ig (D3)-MMH (human) (UniProt P48357). In words: Luminex, myc-captured LEPR protein.
The target of experiment [5] is human LEPR CRH1 (D1)-MMH (human) (UniProt P48357). In words: Luminex, myc-captured LEPR protein.
The target in experiment [6] is human LEPR FNIII-MMH (human) (UniProt P48357). In words: Luminex, myc-captured LEPR protein.
In experiment [7] the target is human LEPR CRH1 (D1,D2)-MMH (human) (UniProt P48357). Briefly: Luminex, myc-captured LEPR protein.
human LEPR CRH1 (D1,D2)-MMH (human), sequence (P48357 22-339 limits assumed): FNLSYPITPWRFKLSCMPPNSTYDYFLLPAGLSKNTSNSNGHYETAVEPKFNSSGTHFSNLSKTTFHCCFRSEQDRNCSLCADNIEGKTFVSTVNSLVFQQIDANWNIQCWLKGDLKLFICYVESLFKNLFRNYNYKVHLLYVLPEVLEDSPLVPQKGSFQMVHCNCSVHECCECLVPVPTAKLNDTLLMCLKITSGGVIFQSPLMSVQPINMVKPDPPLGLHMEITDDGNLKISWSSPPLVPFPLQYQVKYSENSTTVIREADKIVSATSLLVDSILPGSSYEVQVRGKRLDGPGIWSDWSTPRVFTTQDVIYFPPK
Experiment [8] concerns the target human LEPR Ig-CRH2-FNIII-MMH (human) (UniProt P48357). Briefly: Luminex, myc-captured LEPR protein.
For experiment [9], the target named is human LEPR CRH1-Ig (D2,D3)-MMH (human) (UniProt P48357). Briefly: Luminex, myc-captured LEPR protein.
For experiment [10], the target named is human LEPR CRH2-MMH (human) (UniProt P48357). Briefly: Luminex, myc-captured LEPR protein.
Experiment [11] has as its target extracellular domain portion of LEPR protein expressed with a C-terminal human Fc tag (hLEPR.hFc) (human). In words: ELISA, 500 nM Ab, 10 nM hLEPR.hFc to coated hLeptin. On the technique in general: ELISA stands for enzyme-linked immunosorbent assay.
Experiment [12] deals with Mycx2-hLepR(ecto)-GPI anchored, on HEK293/hLEPR-GPI cells (human) (UniProt P48357). Briefly: FACS, 10 nM Ab, HEK293/hLEPR-GPI, no added Leptin.
The target in experiment [13] is human LEPR extracellular domain expressed with a C-terminal myc-myc-hexahistidine tag (hLEPR.mmh) (human) (UniProt P48357). Briefly: SPR, mAb captured, 25C. On the technique in general: Surface plasmon resonance follows binding to a sensor surface in real time, without labels.
human LEPR extracellular domain expressed with a C-terminal myc-myc-hexahistidine tag (hLEPR.mmh) (human), sequence (P48357 other isoform, or with tags, fused parts or gaps): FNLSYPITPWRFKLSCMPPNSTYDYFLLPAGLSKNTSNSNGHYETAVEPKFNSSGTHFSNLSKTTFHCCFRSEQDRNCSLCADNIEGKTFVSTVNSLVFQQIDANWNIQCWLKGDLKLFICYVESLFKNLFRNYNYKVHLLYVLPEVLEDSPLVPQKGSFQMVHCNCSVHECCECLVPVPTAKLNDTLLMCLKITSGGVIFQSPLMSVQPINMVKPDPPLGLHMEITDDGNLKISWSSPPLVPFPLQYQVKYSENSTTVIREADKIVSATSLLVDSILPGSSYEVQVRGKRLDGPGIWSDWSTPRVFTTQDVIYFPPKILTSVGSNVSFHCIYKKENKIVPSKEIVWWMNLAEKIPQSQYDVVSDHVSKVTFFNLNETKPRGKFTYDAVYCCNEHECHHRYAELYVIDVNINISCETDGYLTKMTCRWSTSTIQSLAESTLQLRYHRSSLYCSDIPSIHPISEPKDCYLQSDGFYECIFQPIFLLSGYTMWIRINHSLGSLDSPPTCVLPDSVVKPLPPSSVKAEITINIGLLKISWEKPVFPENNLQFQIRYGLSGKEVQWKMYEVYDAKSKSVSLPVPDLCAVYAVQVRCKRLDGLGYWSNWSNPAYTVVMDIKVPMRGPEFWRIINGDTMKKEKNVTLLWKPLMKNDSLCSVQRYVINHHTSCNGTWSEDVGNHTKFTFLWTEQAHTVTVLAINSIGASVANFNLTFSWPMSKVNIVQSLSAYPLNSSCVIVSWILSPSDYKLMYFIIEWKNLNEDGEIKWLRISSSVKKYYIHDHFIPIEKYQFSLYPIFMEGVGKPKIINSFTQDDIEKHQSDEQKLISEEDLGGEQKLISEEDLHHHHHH
In experiment [14] the target is human LEPR extracellular domain expressed with a C-terminal mouse IgG2a Fc tag (hLEPR.mFc) (human). Briefly: SPR, mAb captured, 25C.
human LEPR extracellular domain expressed with a C-terminal mouse IgG2a Fc tag (hLEPR.mFc) (human), sequence (chain, as listed by the source limits assumed): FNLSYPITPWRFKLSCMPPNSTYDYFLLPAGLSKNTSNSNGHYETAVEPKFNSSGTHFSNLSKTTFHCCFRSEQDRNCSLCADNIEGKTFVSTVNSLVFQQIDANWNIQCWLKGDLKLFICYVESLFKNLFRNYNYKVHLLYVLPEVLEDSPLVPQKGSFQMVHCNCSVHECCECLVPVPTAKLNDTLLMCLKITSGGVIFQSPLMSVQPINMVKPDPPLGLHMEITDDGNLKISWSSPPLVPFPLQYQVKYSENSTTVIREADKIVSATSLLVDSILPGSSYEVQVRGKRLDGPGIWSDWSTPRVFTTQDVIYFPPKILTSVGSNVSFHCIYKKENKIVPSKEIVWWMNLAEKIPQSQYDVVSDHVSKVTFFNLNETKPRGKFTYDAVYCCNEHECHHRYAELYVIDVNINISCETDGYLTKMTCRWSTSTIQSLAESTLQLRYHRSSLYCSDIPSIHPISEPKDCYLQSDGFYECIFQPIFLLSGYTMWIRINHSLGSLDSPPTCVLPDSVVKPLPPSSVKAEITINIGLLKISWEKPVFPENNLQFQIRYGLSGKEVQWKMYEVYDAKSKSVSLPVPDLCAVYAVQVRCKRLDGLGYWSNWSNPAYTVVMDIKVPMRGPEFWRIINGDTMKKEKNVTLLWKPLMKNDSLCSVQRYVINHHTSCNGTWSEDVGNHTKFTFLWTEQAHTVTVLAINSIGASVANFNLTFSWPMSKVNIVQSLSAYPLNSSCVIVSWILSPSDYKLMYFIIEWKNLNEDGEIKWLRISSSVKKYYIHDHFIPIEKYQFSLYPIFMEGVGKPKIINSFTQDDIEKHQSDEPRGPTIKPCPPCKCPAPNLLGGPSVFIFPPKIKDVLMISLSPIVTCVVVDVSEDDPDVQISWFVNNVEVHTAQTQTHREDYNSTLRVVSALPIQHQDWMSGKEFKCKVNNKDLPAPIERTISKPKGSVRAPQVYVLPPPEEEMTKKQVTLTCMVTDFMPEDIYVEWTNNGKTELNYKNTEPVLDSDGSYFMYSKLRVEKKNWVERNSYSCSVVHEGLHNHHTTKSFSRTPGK
The target in experiment [15] is macaca fascicularis LEPR extracellular domain expressed with a C-terminal myc-myc-hexahistidine tag (mfLEPR.mmh) (Macaca fascicularis). In words: SPR, mAb captured, 25C.
macaca fascicularis LEPR extracellular domain expressed with a C-terminal myc-myc-hexahistidine tag (mfLEPR.mmh) (Macaca fascicularis), sequence (Q9MYL0 other isoform, or with tags, fused parts or gaps): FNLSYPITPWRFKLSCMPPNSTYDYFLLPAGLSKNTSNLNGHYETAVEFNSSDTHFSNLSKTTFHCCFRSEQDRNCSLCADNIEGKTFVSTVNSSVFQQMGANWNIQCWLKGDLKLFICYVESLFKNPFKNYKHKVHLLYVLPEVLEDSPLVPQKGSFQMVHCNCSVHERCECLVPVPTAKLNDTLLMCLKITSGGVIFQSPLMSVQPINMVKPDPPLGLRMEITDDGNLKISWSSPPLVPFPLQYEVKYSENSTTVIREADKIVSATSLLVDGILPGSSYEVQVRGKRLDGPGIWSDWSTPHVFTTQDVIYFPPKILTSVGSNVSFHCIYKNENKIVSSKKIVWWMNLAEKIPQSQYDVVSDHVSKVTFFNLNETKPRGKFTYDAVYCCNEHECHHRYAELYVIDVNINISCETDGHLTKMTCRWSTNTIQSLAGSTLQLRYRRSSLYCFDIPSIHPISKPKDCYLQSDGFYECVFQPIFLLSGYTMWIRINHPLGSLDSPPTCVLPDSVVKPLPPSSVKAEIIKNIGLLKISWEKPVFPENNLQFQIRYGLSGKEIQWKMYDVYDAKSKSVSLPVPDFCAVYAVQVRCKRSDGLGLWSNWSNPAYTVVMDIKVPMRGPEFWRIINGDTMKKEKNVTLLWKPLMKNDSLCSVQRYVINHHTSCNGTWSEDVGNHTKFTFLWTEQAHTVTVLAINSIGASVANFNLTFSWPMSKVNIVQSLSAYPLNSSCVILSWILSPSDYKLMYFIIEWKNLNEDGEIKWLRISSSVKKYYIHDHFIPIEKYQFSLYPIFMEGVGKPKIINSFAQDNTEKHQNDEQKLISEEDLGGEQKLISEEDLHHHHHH
In experiment [16] the target is Mycx2-hLepR(ecto)-GPI anchored, on HEK293/hLEPR-GPI cells (human) (UniProt P48357). Briefly: FACS, 70 nM Ab, HEK293/hLEPR-GPI.
Experiment [17] has as its target human LEPR extracellular domain expressed with a C-terminal myc-myc-hexahistidine tag (hLEPR.mmh) (human) (UniProt P48357). In words: SPR, mAb captured, 37C.
For experiment [18], the target named is human LEPR extracellular domain expressed with a C-terminal mouse IgG2a Fc tag (hLEPR.mFc) (human). Briefly: SPR, mAb captured, 37C.
Experiment [19] concerns the target macaca fascicularis LEPR extracellular domain expressed with a C-terminal myc-myc-hexahistidine tag (mfLEPR.mmh) (Macaca fascicularis). Briefly: SPR, mAb captured, 37C.
Experiment [20] deals with full length human LEPR (amino acids 1-1165 of P48357, Isoform B), on cells (human) (UniProt P48357). Briefly: FACS, 70 nM Ab, HEK293/Stat3-luc/hLEPR-FL.

Consider three substances from patent US20170101477A1.

Mycx2-hLepR(ecto)-GPI anchored, on HEK293/hLEPR-GPI cells (human), sequence (P48357 22-839): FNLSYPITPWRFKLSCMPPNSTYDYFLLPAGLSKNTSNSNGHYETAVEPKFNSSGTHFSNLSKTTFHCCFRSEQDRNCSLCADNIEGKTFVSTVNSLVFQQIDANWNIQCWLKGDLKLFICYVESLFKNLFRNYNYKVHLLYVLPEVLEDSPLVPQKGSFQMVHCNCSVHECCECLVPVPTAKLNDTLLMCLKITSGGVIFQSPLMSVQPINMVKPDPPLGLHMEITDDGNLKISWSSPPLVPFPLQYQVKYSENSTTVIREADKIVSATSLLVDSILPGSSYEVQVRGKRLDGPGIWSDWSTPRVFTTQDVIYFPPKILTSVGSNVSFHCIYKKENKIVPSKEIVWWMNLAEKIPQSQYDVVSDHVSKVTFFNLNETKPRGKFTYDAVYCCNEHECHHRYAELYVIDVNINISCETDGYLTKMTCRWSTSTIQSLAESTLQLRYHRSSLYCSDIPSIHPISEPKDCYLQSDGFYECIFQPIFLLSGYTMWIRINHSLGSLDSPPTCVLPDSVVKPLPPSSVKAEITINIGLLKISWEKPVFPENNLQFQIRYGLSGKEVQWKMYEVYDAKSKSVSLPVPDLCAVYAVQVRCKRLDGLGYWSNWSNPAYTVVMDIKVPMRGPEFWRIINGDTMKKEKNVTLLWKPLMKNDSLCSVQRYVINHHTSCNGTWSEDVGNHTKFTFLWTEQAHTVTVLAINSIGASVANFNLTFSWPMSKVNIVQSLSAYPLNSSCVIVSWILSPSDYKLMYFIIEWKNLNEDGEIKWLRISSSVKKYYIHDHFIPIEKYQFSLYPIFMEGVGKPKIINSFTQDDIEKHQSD
extracellular domain portion of LEPR protein expressed with a C-terminal human Fc tag (hLEPR.hFc) (human), sequence (chain, as listed by the source limits assumed): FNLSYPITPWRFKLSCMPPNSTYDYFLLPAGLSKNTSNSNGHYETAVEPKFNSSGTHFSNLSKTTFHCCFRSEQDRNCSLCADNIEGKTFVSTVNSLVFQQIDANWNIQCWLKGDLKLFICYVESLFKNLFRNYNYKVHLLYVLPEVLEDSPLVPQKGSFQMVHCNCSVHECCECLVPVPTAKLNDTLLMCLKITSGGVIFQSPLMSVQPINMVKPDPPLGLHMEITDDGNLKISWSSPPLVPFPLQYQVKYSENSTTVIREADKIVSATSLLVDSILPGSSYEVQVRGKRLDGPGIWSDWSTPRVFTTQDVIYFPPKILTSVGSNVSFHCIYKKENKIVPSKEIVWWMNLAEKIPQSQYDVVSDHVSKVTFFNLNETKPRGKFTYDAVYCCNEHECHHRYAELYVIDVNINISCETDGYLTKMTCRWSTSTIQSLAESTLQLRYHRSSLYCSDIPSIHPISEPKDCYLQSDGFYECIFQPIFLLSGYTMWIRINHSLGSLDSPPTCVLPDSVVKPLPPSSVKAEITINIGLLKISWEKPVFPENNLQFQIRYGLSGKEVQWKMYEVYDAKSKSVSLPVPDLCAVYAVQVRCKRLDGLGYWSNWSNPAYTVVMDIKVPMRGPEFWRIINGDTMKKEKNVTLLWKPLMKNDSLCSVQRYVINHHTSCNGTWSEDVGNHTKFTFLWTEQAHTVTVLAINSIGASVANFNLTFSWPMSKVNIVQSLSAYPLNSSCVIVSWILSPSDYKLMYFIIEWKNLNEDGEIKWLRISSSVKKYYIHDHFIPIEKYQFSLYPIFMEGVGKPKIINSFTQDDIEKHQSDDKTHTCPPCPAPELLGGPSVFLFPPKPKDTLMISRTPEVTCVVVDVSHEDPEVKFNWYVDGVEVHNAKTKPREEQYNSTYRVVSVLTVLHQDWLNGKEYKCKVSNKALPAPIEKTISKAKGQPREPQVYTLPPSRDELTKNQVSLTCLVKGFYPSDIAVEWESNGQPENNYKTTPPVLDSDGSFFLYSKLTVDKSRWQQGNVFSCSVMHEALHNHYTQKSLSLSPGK

On to “Comparator mAb (Fab9F8 described in Fazeli et al. 2006 and Carpenter et al. 2012) (antibody)”, for which the values for the Binding Ratio in experiment [1] and in [12] were 112 fold and 2350 fold, respectively. Moreover, the Luminex MFI in experiment [2] was 3910 MFI; in experiment [3], -57 MFI; in [4] it was 10 MFI; in [5] it was -14 MFI; in experiment [6], 73 MFI; in experiment [7], 19 MFI. For the same substance, the results for the Luminex MFI in [8], in [9] and in experiment [10] were 7110 MFI, 27 MFI and 9400 MFI, respectively. Also, the % blockade in experiment [11] amounted to 99%.
On to Isotype Control mAb (antibody), for which the 100 nM hLEPR-MMH Bound (RU) in experiment [13] was 4 RU; in experiment [17] it was 6 RU. Moreover, the results for the 100 nM hLEPR-mFc Bound (RU) in [14] and in [18] were -2 RU and 1 RU, respectively. The 100 nM mfLEPR.MMH Bound (RU) in experiment [15] was 0 RU; in experiment [19], 1 RU. Moreover, the Binding Ratio in [1] stood at 4 fold; in [16], 2 fold; in [12], 6 fold; in [20], 2 fold. Further, the % blockade in experiment [11] is -3%.
Take Mouse IgG2a Isotype control (antibody): the % blockade in experiment [11] was 32%.
